Test results reported in patent US20260042834A1 (HBM ALPHA THERAPEUTICS, published 2026).

Experiments:
human UCN2 peptide [1] = molecular target: T1, human UCN2 peptide (human, UniProt Q96RP3 72-109, limits assumed, not fully specified; biotin at N- or C-terminus in the ELISA); assay: ELISA on streptavidin-captured hUCN2 (NT biotin) and hUCN2 (CT biotin), mAb at 100 nM and 10 nM; axis labelled RLU, scale 0-4
T1 construct: also called hUCN2; hUCN2 (NT Biotin)
T1 peptide (looked up): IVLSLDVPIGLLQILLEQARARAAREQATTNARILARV
Procedure: (§1) Streptavidin (Thermo, Cat: 21125) was diluted in PBS with a concentration of 2 μg/mL. 100 μL of diluted streptavidin was added per well to ELISA microplates, and the plates were incubated overnight at 4° C. Plates were blocked with ELISA blocking solution (containing 2% w/v BSA, 0.05% (v/v) Tween-20, pH 7.4 PBS buffer) at 37° C. for 1 hour, and then incubated with either 1 μg/mL hUCN1 (NT Biotin), hUCN1 (CT Biotin), hUCN2 (NT Biotin), hUCN2 (CT Biotin), hUCN3 (NT Biotin), or hUCN3 (CT Biotin) for 1 hour at 37° C. […] 100 μl of TMB Substrate (Biopanda, Cat: TMB-S-003) was added, and the plates were incubated at room temperature for 15 minutes. 100 μL of ELISA stopping solution (Solarbio, Cat #: C1058) was then added to terminate the reaction, and the OD450 nm was determined by an ELISA plate reader (Molecular Devices, Spectra max 384 plus).

CRH (NT Biotin) = molecular target: T2, CRH (NT Biotin) (human and mouse, not fully specified; biotin at the N-terminus); assay: ELISA, biotin peptide on streptavidin plate
T2 peptide: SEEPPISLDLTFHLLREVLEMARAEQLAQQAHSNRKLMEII
Procedure: (§2) Streptavidin (Thermo, Cat: 21125) was diluted in PBS to a concentration of 2 μg/ml. 100 μl of diluted streptavidin was added per well to ELISA microplates, and the plates were incubated overnight at 4° C. […] 100 μL of 3,3′,5,5′-tetramethylbenzidine (TMB) substrate (Biopanda, Cat: TMB-S-003) was added, and the plates were incubated at room temperature for 15 minutes. 100 μL of ELISA stopping solution (Solarbio, Cat #: C1058) was added to terminate the reaction, and the optical density at 450 nm (OD450 nm) was determined by an ELISA plate reader (Molecular Devices, Spectra max 384 plus).

CRH (CT Biotin) = molecular target: T3, CRH (CT Biotin) (human and mouse, C-terminal K-Biotin); assay: ELISA, biotin peptide on streptavidin plate
T3 construct: also called Peptide 4 (CRH-Biotin)
T3 peptide: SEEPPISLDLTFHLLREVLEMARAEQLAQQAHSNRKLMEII
Procedure: as §2

hUCN1 (CT Biotin) = molecular target: T4, hUCN1 (CT Biotin) (human, UniProt P55089 83-122, biotin at the C-terminus); assay: ELISA, biotin peptide on streptavidin plate
T4 construct: also called human UCN1 (CT biotin)
T4 peptide (looked up): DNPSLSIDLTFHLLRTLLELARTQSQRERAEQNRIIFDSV
Procedure: as §2

hUCN1 (NT Biotin) = molecular target: T5, hUCN1 (NT Biotin) (human, UniProt P55089 83-122, biotin at the N-terminus); assay: ELISA, biotin peptide on streptavidin plate
T5 construct: also called human UCN1 (NT biotin)
T5 peptide (looked up): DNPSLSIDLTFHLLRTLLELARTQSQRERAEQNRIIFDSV
Procedure: as §2

biotinylated CRH = molecular target: T6, biotinylated CRH (human and mouse, not fully specified; biotinylated, position not stated); assay: Octet BLI, biotinylated CRH on SA sensor
T6 construct: also called Biotin-CRH; biotin-labeled CRH
T6 peptide: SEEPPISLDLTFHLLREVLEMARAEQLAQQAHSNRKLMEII

[2] = molecular target: T7, corticotropin-releasing hormone (CRH) peptide (human and mouse, not fully specified); assay: cell-based or functional assay
T7 peptide: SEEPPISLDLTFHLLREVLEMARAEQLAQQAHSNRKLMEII

human UCN1 peptide = molecular target: T8, human UCN1 peptide (human, UniProt P55089 83-122); assay: cell-based or functional assay
T8 peptide (looked up): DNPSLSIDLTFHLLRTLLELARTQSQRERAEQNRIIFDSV

human UCN2 peptide [3] = molecular target: T1, human UCN2 peptide; assay: ELISA on streptavidin-captured hUCN2 (NT biotin) and hUCN2 (CT biotin), mAb at 100 nM and 10 nM, OD450
Procedure: as §1

N-Terminal CRH = molecular target: T9, N-Terminal CRH (human and mouse, C-terminal K-Biotin); assay: ELISA, biotin peptide on streptavidin plate
T9 construct: also called N-Ter-CRH (CT-Bion)
T9 peptide: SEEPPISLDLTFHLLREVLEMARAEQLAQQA
Procedure: as §2

human UCN3 peptide = molecular target: T10, human UCN3 peptide (human, UniProt Q969E3 120-157, not fully specified; biotin at N- or C-terminus in the ELISA); assay: ELISA on streptavidin-captured hUCN3 (NT biotin) and hUCN3 (CT biotin), mAb at 100 nM and 10 nM, OD450
T10 construct: also called hUCN3; hUCN3 (NT Biotin)
T10 peptide (looked up): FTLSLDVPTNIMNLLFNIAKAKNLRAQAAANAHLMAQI
Procedure: as §1

B1: PR302341-55 (antibody, human IgG1, kappa, V domains shown)
VH: QVQLVQSGAEVKKPGASVKVSCKASGYTFTDYFMKWVRQAPGQRLEWMGVINPNNADIFYNQKFKGRVTITRDTSASTAYMELSSLRSEDTAVYYCARGTDRALFAYWGQGTLVTVSS
VL: DVVMTQSPLSLPVTLGQPASISCRSGQSIVHSDGNTYLEWYQQRPGQSPRLLIYKVSNRFSGVPDRFSGSGSGTDFTLKISRVEAEDLGVYYCFQGSHIPWTFGGGTKVEIKR
notes: Humanized, PTM-removed variant of PR302341
binding result (human UCN2 peptide [1]): no binding (tested: 100 nM) | EC50 (CRH (NT Biotin)): 0.022 nM | EC50 (CRH (CT Biotin)): 0.019 nM | EC50 (hUCN1 (CT Biotin)): 0.018 nM | EC50 (hUCN1 (NT Biotin)): 0.013 nM | Kd (biotinylated CRH): < 0.001 nM | koff (biotinylated CRH): < 1e-07 s⁻¹ | kon (biotinylated CRH): 1.2e+06 M⁻¹ s⁻¹ | CHO-CRE-hCRHR1 0.5 nM CRH IC50 [2]: 0.105 nM | CHO-CRE-hCRHR1 1 nM hUCH1 IC50 (human UCN1 peptide): 28 nM | hUCN1 IC50/ CRH IC50 (human UCN1 peptide): 267 fold

B2: PR302341-60 (antibody, human IgG1, kappa, V domains shown)
VH: QVQLVQSGAEVKKPGASVKVSCKASGYTFTDYFMKWVRQAPGQRLEWMGVINPNQGDIFYNQKFKGRVTITRDTSASTAYMELSSLRSEDTAVYYCARGTDRALFAYWGQGTLVTVSS
VL: DVVMTQSPLSLPVTLGQPASISCRSGQSIVHSDANTYLEWYQQRPGQSPRLLIYKVSNRFSGVPDRFSGSGSGTDFTLKISRVEAEDLGVYYCFQGSHIPWTFGGGTKVEIKR
notes: as for B1
binding result (human UCN2 peptide [1]): no binding (tested: 100 nM) | EC50 (CRH (NT Biotin)): 0.043 nM | EC50 (CRH (CT Biotin)): 0.036 nM | EC50 (hUCN1 (CT Biotin)): 0.036 nM | EC50 (hUCN1 (NT Biotin)): 0.026 nM | Kd (biotinylated CRH): 0.0142 nM | koff (biotinylated CRH): 3.35e-05 s⁻¹ | kon (biotinylated CRH): 2.49e+06 M⁻¹ s⁻¹ | CHO-CRE-hCRHR1 0.5 nM CRH IC50 [2]: 0.878 nM | CHO-CRE-hCRHR1 1 nM hUCH1 IC50 (human UCN1 peptide): 71 nM | hUCN1 IC50/ CRH IC50 (human UCN1 peptide): 81 fold

B3: PR302309-11 (antibody, human IgG1, kappa, V domains shown)
VH: QIQLVQSGSELKKPGASVKVSCKASGYTFTNYGMNWVRQAPGQGLEWMGWINTYTGEPIYTDDFKGRFVFSLDTSVSTAYLQISSLKAEDTAVYYCSRSTMITTGGVFAYWGQGTLVTVSS
VL: DIVMTQTPLSSPVTLGQPASISCRSSQTIVHSDGNTYLEWLQQRPGQPPRLLIYKVSNRFSGVPDRFSGSGAGTDFTLKISRVEAEDVGVYYCFQGSHVPWTFGGGTKVEIKR
notes: Humanized variant of PR302309
binding result (human UCN2 peptide [3]): no binding (tested: 100 nM) | EC50 (CRH (NT Biotin)): 0.032 nM | EC50 (CRH (CT Biotin)): 0.032 nM | EC50 (hUCN1 (CT Biotin)): 0.451 nM | EC50 (hUCN1 (NT Biotin)): 0.078 nM | EC50 (N-Terminal CRH): 0.028 nM | binding result (human UCN3 peptide): no binding (tested: 100 nM) | Kd (biotinylated CRH): 0.0551 nM | koff (biotinylated CRH): 8.48e-06 s⁻¹ | kon (biotinylated CRH): 154000 M⁻¹ s⁻¹ | CHO-CRE-hCRHR1 0.5 nM CRH IC50 [2]: 2.12 nM
